These results are taken from ChEMBL document CHEMBL2074211, “Modulation of nitrated lipid signaling by multidrug resistance protein 1 (MRP1): glutathione conjugation and MRP1-mediated efflux inhibit nitrolinoleic acid-induced, PPARgamma-dependent transcription activation” (Biochemistry, 2006).

Substrate in this data set: CCCCC/C=C\C/C(=C\CCCCCCCC(=O)O[C@@H]1O[C@H](C(=O)O)[C@@H](O)[C@H](O)[C@H]1O)[N+](=O)[O-]
In words: TP_TRANSPORTER: vesicle uptake in MRP1-expressing membrane vesicles. The format is functional, cell membranes, MCF7/MRP1-10.

B1: Multidrug resistance-associated protein 1 (Homo sapiens) (protein)
chain: MALRGFCSADGSDPLWDWNVTWNTSNPDFTKCFQNTVLVWVPCFYLWACFPFYFLYLSRHDRGYIQMTPLNKTKTALGFLLWIVCWADLFYSFWERSRGIFLAPVFLVSPTLLGITMLLATFLIQLERRKGVQSSGIMLTFWLVALVCALAILRSKIMTALKEDAQVDLFRDITFYVYFSLLLIQLVLSCFSDRSPLFSETIHDPNPCPESSASFLSRITFWWITGLIVRGYRQPLEGSDLWSLNKEDTSEQVVPVLVKNWKKECAKTRKQPVKVVYSSKDPAQPKESSKVDANEEVEALIVKSPQKEWNPSLFKVLYKTFGPYFLMSFFFKAIHDLMMFSGPQILKLLIKFVNDTKAPDWQGYFYTVLLFVTACLQTLVLHQYFHICFVSGMRIKTAVIGAVYRKALVITNSARKSSTVGEIVNLMSVDAQRFMDLATYINMIWSAPLQVILALYLLWLNLGPSVLAGVAVMVLMVPVNAVMAMKTKTYQVAHMKSKDNRIKLMNEILNGIKVLKLYAWELAFKDKVLAIRQEELKVLKKSAYLSAVGTFTWVCTPFLVALCTFAVYVTIDENNILDAQTAFVSLALFNILRFPLNILPMVISSIVQASVSLKRLRIFLSHEELEPDSIERRPVKDGGGTNSITVRNATFTWARSDPPTLNGITFSIPEGALVAVVGQVGCGKSSLLSALLAEMDKVEGHVAIKGSVAYVPQQAWIQNDSLRENILFGCQLEEPYYRSVIQACALLPDLEILPSGDRTEIGEKGVNLSGGQKQRVSLARAVYSNADIYLFDDPLSAVDAHVGKHIFENVIGPKGMLKNKTRILVTHSMSYLPQVDVIIVMSGGKISEMGSYQELLARDGAFAEFLRTYASTEQEQDAEENGVTGVSGPGKEAKQMENGMLVTDSAGKQLQRQLSSSSSYSGDISRHHNSTAELQKAEAKKEETWKLMEADKAQTGQVKLSVYWDYMKAIGLFISFLSIFLFMCNHVSALASNYWLSLWTDDPIVNGTQEHTKVRLSVYGALGISQGIAVFGYSMAVSIGGILASRCLHVDLLHSILRSPMSFFERTPSGNLVNRFSKELDTVDSMIPEVIKMFMGSLFNVIGACIVILLATPIAAIIIPPLGLIYFFVQRFYVASSRQLKRLESVSRSPVYSHFNETLLGVSVIRAFEEQERFIHQSDLKVDENQKAYYPSIVANRWLAVRLECVGNCIVLFAALFAVISRHSLSAGLVGLSVSYSLQVTTYLNWLVRMSSEMETNIVAVERLKEYSETEKEAPWQIQETAPPSSWPQVGRVEFRNYCLRYREDLDFVLRHINVTINGGEKVGIVGRTGAGKSSLTLGLFRINESAEGEIIIDGINIAKIGLHDLRFKITIIPQDPVLFSGSLRMNLDPFSQYSDEEVWTSLELAHLKDFVSALPDKLDHECAEGGENLSVGQRQLVCLARALLRKTKILVLDEATAAVDLETDDLIQSTIRTQFEDCTVLTIAHRLNTIMDYTRVIVLDKGEIQEYGAPSDLLQQRGLFYSMAKDAGLV
Consider B1, for which the Km is 0.75 µM.
